# B1: 238D2-20GS-238D4 (VHH)
# chain: EVQLVESGGGLVQTGGSLRLSCAASGFTFSSYAMSWVRQAPGKGLEWVSGIKSSGDSTRYAGSVKGRFTISRDNAKNMLYLQMYSLKPEDTAVYYCAKSRVSRTGLYTYDNRGQGTQVTVSSGGGGSGGGGSGGGGSGGGGSEVQLMESGGGLVQAGGSLRLSCAASGRTFNNYAMGWFRRAPGKEREFVAAITRSGVRSGVSAIYGDSVKDRFTISRDNAKNTLYLQMNSLKPEDTAVYTCAASAIGSGALRRFEYDYSGQGTQVTVSS
# B2: 238D2-15GS-238D4 (VHH)
# chain: EVQLVESGGGLVQTGGSLRLSCAASGFTFSSYAMSWVRQAPGKGLEWVSGIKSSGDSTRYAGSVKGRFTISRDNAKNMLYLQMYSLKPEDTAVYYCAKSRVSRTGLYTYDNRGQGTQVTVSSGGGGSGGGGSGGGGSEVQLMESGGGLVQAGGSLRLSCAASGRTFNNYAMGWFRRAPGKEREFVAAITRSGVRSGVSAIYGDSVKDRFTISRDNAKNTLYLQMNSLKPEDTAVYTCAASAIGSGALRRFEYDYSGQGTQVTVSS
# B3: Nanobody 237D1 (VHH)
# VHH: EVQLVESGGGLAQPGGPLRLTCEASGVIYSVNDMGWYRQAPGKQRELVAVITSGGGTNYVDSVKGRFTISGDNRKKTVYLQMNSLKPEDTAVYYCSIYYSSGISTLRSWGQGTQVTVSS
# B4: 238D2-10GS-238D2 (VHH)
# chain: EVQLVESGGGLVQTGGSLRLSCAASGFTFSSYAMSWVRQAPGKGLEWVSGIKSSGDSTRYAGSVKGRFTISRDNAKNMLYLQMYSLKPEDTAVYYCAKSRVSRTGLYTYDNRGQGTQVTVSSGGGGSGGGGSEVQLVESGGGLVQTGGSLRLSCAASGFTFSSYAMSWVRQAPGKGLEWVSGIKSSGDSTRYAGSVKGRFTISRDNAKNMLYLQMYSLKPEDTAVYYCAKSRVSRTGLYTYDNRGQGTQVTVSS
# B5: 238D2-20GS-238C5 (VHH)
# chain: EVQLVESGGGLVQTGGSLRLSCAASGFTFSSYAMSWVRQAPGKGLEWVSGIKSSGDSTRYAGSVKGRFTISRDNAKNMLYLQMYSLKPEDTAVYYCAKSRVSRTGLYTYDNRGQGTQVTVSSGGGGSGGGGSGGGGSGGGGSEVQLMESGGGLVQAGGSLRLACAASGFTFEDYAIGWFRKAPGKEREGVSCISGSDGSTTYADSVKGRFTISTDNAKNTVYLEMNSLKPEDTAVYYCAQQYGVGGRVVCPGPYEYDVWGQGTQVTVSS
# B6: 238D2-20GS-238B10 (VHH)
# chain: EVQLVESGGGLVQTGGSLRLSCAASGFTFSSYAMSWVRQAPGKGLEWVSGIKSSGDSTRYAGSVKGRFTISRDNAKNMLYLQMYSLKPEDTAVYYCAKSRVSRTGLYTYDNRGQGTQVTVSSGGGGSGGGGSGGGGSGGGGSEVQLVESGGGFVQAGGSLRLSCETSGRPLLGYTIAWFRQVPGKEREFVAYHRWSDGANLYADSVKGRFTISGHNAKNTVSLQMNSLKPEDTAVYYCAAARMTTSNDKEYLYWGQGTQVTVSS
# B7: Nanobody 237G7 (VHH, from a related filing, part only)
# VHH: EVQLVESGGGLVQPGGSLRLSCAASSFIGNYHAIVWLRQAPGKELEGVSCITSRDSITYYASFVKGRFTISRDDAKNTVYLQMNNLKPEDTAVYYCAVBTSMTCPTLIVRFNYRGQGTQVTVSS
# B8: Nanobody 237A6 (VHH)
# VHH: EVQLVESGGGLVQAGGSLRLSCAASGSIFSLNAMGWYRQAPGKQRELVAGITSSTSTYYADSVKGRFTISRDNTKNTVYLQMNSLKPEDTAVYYCNVDCPDYYSDYECPLEDRGQGTQVTVSS
# B9: 238D4-20GS-238D4 (VHH)
# chain: EVQLMESGGGLVQAGGSLRLSCAASGRTFNNYAMGWFRRAPGKEREFVAAITRSGVRSGVSAIYGDSVKDRFTISRDNAKNTLYLQMNSLKPEDTAVYTCAASAIGSGALRRFEYDYSGQGTQVTVSSGGGGSGGGGSGGGGSGGGGSEVQLMESGGGLVQAGGSLRLSCAASGRTFNNYAMGWFRRAPGKEREFVAAITRSGVRSGVSAIYGDSVKDRFTISRDNAKNTLYLQMNSLKPEDTAVYTCAASAIGSGALRRFEYDYSGQGTQVTVSS
# Legend:
# [1] = biological target: human CXCR4 (human); assay: competition vs [125I]-CXCL12; potency relative to monovalent 238D4
# [2] = biological target: human CXCR4 (human); assay: cell-based or functional assay
# [3] = biological target: CCR5 (UniProt P51681); assay: cell-based or functional assay
# [4] = biological target: human CXCR4 (human); assay: competition vs [125I]-CXCL12; potency relative to monovalent 238D2
# [5] = biological target: human CXCR4 (human); assay: competition with [125I]-CXCL12 on HEK293T-CXCR4 membranes
# [6] = biological target: human CXCR4 (human); assay: competition vs [125I]-CXCL12, membranes of HEK293T cells expressing CXCR4
# [7] = biological target: human CXCR4 (human)
# [8] = biological target: human CXCR4 (human); assay: competition vs [125I]-238D2 (3 nM), membranes of HEK293T cells expressing CXCR4; Table B-3 competition vs [125I]-238D2, up to 0.5 µM; bound only
# [9] = biological target: human CXCR4 (human); assay: competition vs [125I]-238D4 (3 nM), membranes of HEK293T cells expressing CXCR4; Table B-3 competition vs [125I]-238D4, up to 0.5 µM; bound only
# [10] = biological target: human CXCR4 (human); assay: periplasmic fraction (1:10), displacement of [125I]-CXCL12, HEK293T-CXCR4 membranes; - = 0-29%, + = 30-69%, ++ = 70-100%; screening of clones (Table B-2): 30-69% displacement of [125I]-CXCL12, HEK293T-CXCR4 membranes
# [11] = biological target: human CXCR4 (human); assay: competition vs [125I]-238D4 (3 nM), membranes of HEK293T cells expressing CXCR4; Table B-3 competition vs [125I]-238D4, at 0.5 µM: no displacement
# [12] = biological target: human CXCR4 (human); assay: competition vs [125I]-238D2 (3 nM), membranes of HEK293T cells expressing CXCR4; Table B-3 competition vs [125I]-238D2, at 0.5 µM: no displacement
# [13] = biological target: human CXCR4 (human); assay: competition vs [125I]-CXCL12 (40 pM), membranes of HEK293T cells expressing CXCR4; Table B-3 competition vs [125I]-CXCL12, up to 0.5 µM; bound only
# [14] = biological target: human CXCR4 (human); assay: competition vs [125I]-CXCL12, membranes of HEK293T cells expressing CXCR4; displacement at 0.5 µM, maximum not reached
# Sequence of CCR5 (P51681 whole entry): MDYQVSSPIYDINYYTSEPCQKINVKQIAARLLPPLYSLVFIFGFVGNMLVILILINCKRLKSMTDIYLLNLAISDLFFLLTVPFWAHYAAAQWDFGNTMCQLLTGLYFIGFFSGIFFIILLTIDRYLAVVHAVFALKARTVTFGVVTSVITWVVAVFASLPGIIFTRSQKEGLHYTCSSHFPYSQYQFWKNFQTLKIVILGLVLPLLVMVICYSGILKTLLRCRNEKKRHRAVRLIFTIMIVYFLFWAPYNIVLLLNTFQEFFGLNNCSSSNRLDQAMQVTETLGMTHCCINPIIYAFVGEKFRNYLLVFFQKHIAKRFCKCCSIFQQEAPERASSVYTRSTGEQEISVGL
binder,measurement,setting,value
B1,Rel. potency,[1],17 fold
same,"Anti-HIV-1 activity (in nM), MT-4/NL4.3",[2],0.25 nM
same,"Anti-HIV-1 activity (in nM), PBMC/HE",[2],2.3 nM
same,"Anti-HIV-1 activity (in nM), PBMC/NL4.3",[2],0.2 nM
same,"Anti-HIV-1 activity (in nM), U87.CD4.CXCR4/NL4.3",[2],0.35 nM
same,"Chemotaxis, Jurkat/0.3 nM CXCL12, Imax (%)",[2],100%
same,"Chemotaxis, Jurkat/0.3 nM CXCL12, pKi or pIC50",[2],10.2
same,"IC50, HIV-1 NL4.3, MT-4 cells, exp. 1",[2],0.0069 µg/mL
same,"IC50, HIV-1 NL4.3, PBMC donor 1",[2],0.0182 µg/mL
same,"IC50, HIV-1 NL4.3, PBMC donor 2",[2],0.0092 µg/mL
same,"IC50, HIV-1 UG270, PBMC donor 1",[2],0.0242 µg/mL
same,"IC50, HIV-1 UG270, PBMC donor 2",[2],0.0831 µg/mL
same,"IC90, HIV-1 NL4.3, MT-4 cells, exp. 1",[2],0.0238 µg/mL
same,"IC90, HIV-1 NL4.3, PBMC donor 1",[2],0.0972 µg/mL
same,"IC90, HIV-1 NL4.3, PBMC donor 2",[2],0.0731 µg/mL
same,"IC90, HIV-1 UG270, PBMC donor 1",[2],0.139 µg/mL
same,"IC90, HIV-1 UG270, PBMC donor 2",[2],0.168 µg/mL
same,"nM IC50, HIV-1 NL4.3, PBMC donor 1",[2],0.61 nM
same,"nM IC50, HIV-1 NL4.3, PBMC donor 2",[2],0.31 nM
same,"nM IC50, HIV-1 UG270, PBMC donor 1",[2],0.81 nM
same,"nM IC50, HIV-1 UG270, PBMC donor 2",[2],2.77 nM
same,"Anti-HIV-1 activity (in nM), PBMC/BaL",[3],> 100 nM
same,"Anti-HIV-1 activity (in nM), U87.CD4.CCR5/BaL",[3],> 100 nM
same,"IC50, HIV-1 BaL, PBMC donor 1",[3],> 1 µg/mL
same,"IC50, HIV-1 BaL, PBMC donor 2",[3],> 1 µg/mL
same,"IC90, HIV-1 BaL, PBMC donor 1",[3],> 1 µg/mL
same,"IC90, HIV-1 BaL, PBMC donor 2",[3],> 1 µg/mL
same,"nM IC50, HIV-1 BAL, PBMC donor 1",[3],> 67 nM
same,"nM IC50, HIV-1 BAL, PBMC donor 2",[3],> 67 nM
same,Rel. potency,[4],27 fold
same,IC50 (read off the curve),[5],0.5 nM
same,Displacem. (%),[6],103%
same,pKi,[6],9.44
same,"IC50 (read off the curve), migration of Jurkat cells towards 0.3 nM CXCL12",[7],0.2 nM
B2,Rel. potency,[1],17 fold
same,"Anti-HIV-1 activity (in nM), MT-4/HE",[2],0.16 nM
same,"Anti-HIV-1 activity (in nM), MT-4/NL4.3",[2],0.25 nM
same,"Anti-HIV-1 activity (in nM), PBMC/HE",[2],1.5 nM
same,"Anti-HIV-1 activity (in nM), PBMC/NL4.3",[2],0.5 nM
same,"Anti-HIV-1 activity (in nM), U87.CD4.CXCR4/NL4.3",[2],0.36 nM
same,"Chemotaxis, Jurkat/0.3 nM CXCL12, Imax (%)",[2],107%
same,"Chemotaxis, Jurkat/0.3 nM CXCL12, pKi or pIC50",[2],9.86
same,"IC50, HIV-1 NL4.3, MT-4 cells, exp. 1",[2],0.0166 µg/mL
same,"IC50, HIV-1 NL4.3, PBMC donor 1",[2],0.01 µg/mL
same,"IC50, HIV-1 NL4.3, PBMC donor 2",[2],0.0179 µg/mL
same,"IC50, HIV-1 UG270, PBMC donor 1",[2],0.0212 µg/mL
same,"IC50, HIV-1 UG270, PBMC donor 2",[2],0.0894 µg/mL
same,"IC90, HIV-1 NL4.3, MT-4 cells, exp. 1",[2],0.0711 µg/mL
same,"IC90, HIV-1 NL4.3, PBMC donor 1",[2],0.11 µg/mL
same,"IC90, HIV-1 NL4.3, PBMC donor 2",[2],0.0341 µg/mL
same,"IC90, HIV-1 UG270, PBMC donor 1",[2],0.0789 µg/mL
same,"IC90, HIV-1 UG270, PBMC donor 2",[2],0.17 µg/mL
same,"nM IC50, HIV-1 NL4.3, PBMC donor 1",[2],0.33 nM
same,"nM IC50, HIV-1 NL4.3, PBMC donor 2",[2],0.6 nM
same,"nM IC50, HIV-1 UG270, PBMC donor 1",[2],0.71 nM
same,"nM IC50, HIV-1 UG270, PBMC donor 2",[2],2.98 nM
same,"Anti-HIV-1 activity (in nM), PBMC/BaL",[3],> 100 nM
same,"Anti-HIV-1 activity (in nM), U87.CD4.CCR5/BaL",[3],> 100 nM
same,"IC50, HIV-1 BaL, PBMC donor 1",[3],> 1 µg/mL
same,"IC50, HIV-1 BaL, PBMC donor 2",[3],> 1 µg/mL
same,"IC90, HIV-1 BaL, PBMC donor 1",[3],> 1 µg/mL
same,"IC90, HIV-1 BaL, PBMC donor 2",[3],> 1 µg/mL
same,"nM IC50, HIV-1 BAL, PBMC donor 1",[3],> 67 nM
same,"nM IC50, HIV-1 BAL, PBMC donor 2",[3],> 67 nM
same,Rel. potency,[4],28 fold
same,IC50 (read off the curve),[5],0.5 nM
same,Displacem. (%),[6],92%
same,pKi,[6],9.45
same,"IC50 (read off the curve), migration of Jurkat cells towards 0.3 nM CXCL12",[7],0.3 nM
B3,pKi,[8],< 6.3
same,pKi,[9],< 6.3
same,percent inhibition of specific [125I]-CXCL12 binding,[10],30 to 69%
same,Displacem. (%),[11],0%
same,Displacem. (%),[12],0%
same,pKi,[13],< 6.3
B4,Rel. potency,[4],14 fold
same,Displacem. (%),[6],95%
same,pKi,[6],9.16
B5,Rel. potency,[4],0.18 fold
same,Displacem. (%),[6],110%
same,pKi,[6],7.35
B6,Displacem. (%),[14],43%
same,Rel. potency,[4],< 0.1 fold
same,pKi,[6],< 7
B7,pKi,[8],< 6.3
same,pKi,[9],< 6.3
same,percent inhibition of specific [125I]-CXCL12 binding,[10],30 to 69%
same,Displacem. (%),[11],0%
same,Displacem. (%),[12],0%
same,pKi,[13],< 6.3
B8,pKi,[8],< 6.3
same,pKi,[9],< 6.3
same,percent inhibition of specific [125I]-CXCL12 binding,[10],30 to 69%
same,Displacem. (%),[11],0%
same,Displacem. (%),[12],0%
same,pKi,[13],< 6.3
B9,Rel. potency,[1],4.4 fold
same,IC50 (read off the curve),[5],2 nM
same,Displacem. (%),[6],96%
same,pKi,[6],8.85

# From US20110318347A1
